Target: STAT3 (Signal Transducer and Activator of Transcription 3), P42227
Sequence (P42227 2-770): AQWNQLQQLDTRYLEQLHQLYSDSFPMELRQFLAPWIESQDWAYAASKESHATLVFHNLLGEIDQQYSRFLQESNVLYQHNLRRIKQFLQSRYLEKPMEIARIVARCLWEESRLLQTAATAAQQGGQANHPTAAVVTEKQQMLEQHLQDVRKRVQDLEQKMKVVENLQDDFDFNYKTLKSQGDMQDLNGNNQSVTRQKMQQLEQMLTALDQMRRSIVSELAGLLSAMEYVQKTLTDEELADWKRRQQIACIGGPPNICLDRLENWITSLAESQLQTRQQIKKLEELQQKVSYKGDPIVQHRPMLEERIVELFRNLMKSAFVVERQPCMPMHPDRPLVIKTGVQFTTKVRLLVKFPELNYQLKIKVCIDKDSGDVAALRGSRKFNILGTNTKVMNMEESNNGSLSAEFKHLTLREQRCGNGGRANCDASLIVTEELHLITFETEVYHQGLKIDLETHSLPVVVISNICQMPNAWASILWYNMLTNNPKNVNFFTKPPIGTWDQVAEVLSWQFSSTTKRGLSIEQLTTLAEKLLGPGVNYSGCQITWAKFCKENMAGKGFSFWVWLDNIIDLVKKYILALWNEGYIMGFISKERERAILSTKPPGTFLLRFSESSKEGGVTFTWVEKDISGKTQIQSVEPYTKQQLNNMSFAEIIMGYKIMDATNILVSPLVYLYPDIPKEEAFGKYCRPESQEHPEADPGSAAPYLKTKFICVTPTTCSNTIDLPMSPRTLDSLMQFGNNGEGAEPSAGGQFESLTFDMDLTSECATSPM

B1: PKCδ (protein kinase C delta) (protein)
chain: MAPFLRISFNSYELGSLQVEDEASQPFCAVKMKEALSTERGKTLVQKKPTMYPEWKTTFDAHIYEGRVIQIVLMRAAEDPVSEVTVGVSVLAERCKKNNGKAEFWLDLQPQAKVLMCVQYFLEDGDCKQSMRSEEEAKFPTMNRRGAIKQAKIHYIKNHEFIATFFGQPTFCSVCKEFVWGLNKQGYKCRQCNAAIHKKCIDKIIGRCTGTATNSRDTIFQKERFNIDMPHRFKVYNYMSPTFCDHCGSLLWGLVKQGLKCEDCGMNVHHKCREKVANLCGINQKLLAEALNQVTQRSSRKLDTTESVGIYQGFEKKPEVSGSDILDNNGTYGKIWEGSTRCTLENFTFQKVLGKGSFGKVLLAELKGKDKYFAIKCLKKDVVLIDDDVECTMVEKRVLALAWESPFLTHLICTFQTKDHLFFVMEFLNGGDLMFHIQDKGRFELYRATFYAAEIICGLQFLHSKGIIYRDLKLDNVMLDRDGHIKIADFGMCKENIFGEGRASTFCGTPDYIAPEILQGLKYSFSVDWWSFGVLLYEMLIGQSPFHGDDEDELFESIRVDTPHYPRWITKESKDIMEKLFERDPDKRLGVTGNIRIHPFFKTINWSLLEKRKVEPPFKPKVKSPSDYSNFDPEFLNEKPQLSFSDKNLIDSMDQEAFHGFSFVNPKFEQFLDI
Q: With B1 as the protein, how does the “immunofluorescence with antiphospho-Tyr-705-STAT3 antibody after insulin stimulation, with or without rottlerin” value read?
A: Following insulin stimulation, PKCδ is activated and in turn phosphorylates and activates STAT3

From US20060258562
